In test [1] the target is c-met protooncogene product (HGF receptor) on B5/589 human mammary epithelial cells (human) (UniProt P08581). Briefly: cell-based or functional assay.
For test [2] the target is unchanged. Briefly: competition of 125I-HGF/NK1 cross-linking to B5/589 cells by excess unlabeled HGF/NK1 or HGF/SF.

In test [1], “HGF/NK1 (truncated HGF variant; N-terminal domain and first kringle domain), eukaryotically expressed from the pH46 (2.2 kb) coding region (from UniProt P14210 32-210) (ligand)” showed a [3H]-thymidine incorporation in B5/589 cells, percent of the maximal DNA synthesis elicited by HGF/SF (% of maximal HGF/SF response at 8 nM) of 20 and an inhibition of HGF/SF mitogenic activity in the B5/589 bioassay: molar excess for ~50% reduction (fold molar excess over HGF/SF) of 20. Besides, in test [2], the affinity for Met relative to full-length HGF/SF (fold of HGF/SF affinity) was 0.25.
